The test concerns the target profilin (Acanthamoeba). Nature of the test: affinity chromatography.

Arp2/3 complex, sequence (P53487 whole entry, looked up, one chain of several): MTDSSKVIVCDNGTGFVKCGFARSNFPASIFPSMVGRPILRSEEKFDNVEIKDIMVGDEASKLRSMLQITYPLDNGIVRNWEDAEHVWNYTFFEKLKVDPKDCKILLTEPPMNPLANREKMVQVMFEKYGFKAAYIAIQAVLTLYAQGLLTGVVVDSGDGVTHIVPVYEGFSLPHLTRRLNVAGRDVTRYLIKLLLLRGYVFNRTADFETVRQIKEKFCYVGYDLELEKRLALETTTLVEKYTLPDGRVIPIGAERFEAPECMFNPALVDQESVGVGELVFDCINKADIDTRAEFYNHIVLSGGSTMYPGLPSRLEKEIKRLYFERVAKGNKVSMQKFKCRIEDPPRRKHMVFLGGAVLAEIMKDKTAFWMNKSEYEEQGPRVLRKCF

“Arp2/3 complex (from UniProt P53487 1-388)” came in with a percent of the complex bound to the column that holds profilin of 10%.

For the origin of these results see PMC2134809.
